Experiment [1] addresses 6-His-cdk8 (human, UniProt P49336 1-464). In words: pull-down.
Experiment [2] deals with 6-His-cdk3 (human, UniProt Q00526 1-305). In words: pull-down.
Sequence of 6-His-cdk3 (Q00526 whole entry): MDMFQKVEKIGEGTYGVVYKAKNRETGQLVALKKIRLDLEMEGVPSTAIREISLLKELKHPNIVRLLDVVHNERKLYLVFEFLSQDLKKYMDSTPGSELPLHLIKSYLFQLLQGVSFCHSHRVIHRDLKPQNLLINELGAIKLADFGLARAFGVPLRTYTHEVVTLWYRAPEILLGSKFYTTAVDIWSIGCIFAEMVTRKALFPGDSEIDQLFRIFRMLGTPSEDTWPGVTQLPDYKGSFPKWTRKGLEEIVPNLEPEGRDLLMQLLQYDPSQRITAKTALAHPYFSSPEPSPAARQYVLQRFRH

Sequence of 6-His-cdk8 (P49336 whole entry): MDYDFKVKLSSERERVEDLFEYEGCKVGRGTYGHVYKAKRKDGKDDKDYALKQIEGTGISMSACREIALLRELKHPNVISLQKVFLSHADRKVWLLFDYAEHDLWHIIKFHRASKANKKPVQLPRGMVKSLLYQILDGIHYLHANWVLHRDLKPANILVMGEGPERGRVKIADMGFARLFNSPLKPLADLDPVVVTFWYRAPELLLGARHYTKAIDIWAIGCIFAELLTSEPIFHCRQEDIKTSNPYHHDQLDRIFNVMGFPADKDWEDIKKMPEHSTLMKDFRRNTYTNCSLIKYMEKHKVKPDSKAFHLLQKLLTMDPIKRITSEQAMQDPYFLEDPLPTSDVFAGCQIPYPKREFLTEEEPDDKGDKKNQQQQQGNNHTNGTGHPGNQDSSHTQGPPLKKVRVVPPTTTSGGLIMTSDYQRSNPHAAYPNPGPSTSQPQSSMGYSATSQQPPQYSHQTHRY

B1: GST-cyclin C (natural protein, human, UniProt P24863 1-283, looked up)
chain: MAGNFWQSSHYLQWILDKQDLLKERQKDLKFLSEEEYWKLQIFFTNVIQALGEHLKLRQQVIATATVYFKRFYARYSLKSIDPVLMAPTCVFLASKVEEFGVVSNTRLIAAATSVLKTRFSYAFPKEFPYRMNHILECEFYLLELMDCCLIVYHPYRPLLQYVQDMGQEDMLLPLAWRIVNDTYRTDLCLLYPPFMIALACLHVACVVQQKDARQWFAELSVDMEKILEIIRVILKLYEQWKNFDERKEMATILSKMPKPKPPPNSEGEQGPNGSQNSSYSQS
On to B1, for which the binding result in experiment [1] and in experiment [2] was “binds” throughout.

B2: GST-rv-cyclin (natural protein)
chain: MDIPVEFLTAQEPLSYGHIPPVYWKELLNWIDRILTHNQATPNTWEATHMVLLKLHGTLSFSNPAQLPLVAAACLQIAAKHTEAHSRLADPDYITMLGDGVYTKPSLLLTETMALFIVGGHVGAYTLAACDWLLGSLPFSQAENDLLHPYMYHYIKLSYRHRTPDYHSSPALRAAVVIAAAVKGADLLEMNMLFIMMYHLTHISTASLSLGLTHFTAALQRQINLDFAEAEQREAAERRALLEREREQQLQEARERLDDVMAVLEAEVAITITTATEGTDAEDTSEVDVINVVDPIG
On to B2, for which the binding result in experiment [1] and in experiment [2] was “binds” in each case.

The record behind these values is PMC3008307 (Virology, 2010).
